Assay results taken from the supplement of paper PMC9170038.

System: MS2 coat protein
Assay: apparent KD of MS2 coat protein; designed switch direction (-1 OFF switch, 1 ON switch): -1; higher = weaker reporter binding
Procedure, shortened: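 Normalised cluster fluorescence was curve-fitted, and each design's median over clusters is its apparent KD. Before this, SNAP-549-labelled MS2 coat protein was titrated from 0.7 or 1.5 nM, doubling to 3 µM, over RNA switches transcribed on Illumina chips by stalled E. coli RNA polymerase. Titrations had no input, 200 uM small-molecule ligand, or an oligonucleotide input, and steps lasted 0.8–1.5 h (lowest) to 10–20 min (highest).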

[1] = Eterna round: R95, input ligand: FMN 200 uM
[2] = Eterna round: R95, input ligand: microRNA oligo, concentration not stated
[3] = Eterna round: R95, input ligand: none
[4] = input ligand: microRNA oligo, concentration not stated

Sequence: GGUUGGCGAGGAUAUACAUGAGGAUCACCCAUGUGAGAGAUACUAGUGAGGUCGAUUGGUAGAAGGCGCUGACG [JL-ex3-2.02 salish99 mod] (puzzle: Exclusion 3)
- apparent KD of MS2 coat protein [1]: 0.0978 µM
- apparent KD of MS2 coat protein [2]: 0.0955 µM
- apparent KD of MS2 coat protein [3]: 0.135 µM

Sequence: AGCUAGAUAGGAUAUGCCCGAGAUAACAUGAGGAUCACCCAUGUGACCGAAUCAAAUCUAGCAGAAGGGUUUAGGA [Mod of ViennaUCT 15 - Jieux - Exclusion 5] (Eterna round: R97, puzzle: Exclusion 5)
- apparent KD of MS2 coat protein (input ligand: FMN 200 uM): 0.0165 µM
- apparent KD of MS2 coat protein (input ligand: none): 0.0172 µM

Sequence: GGUUCGAAUGUGAGGAUAUGCUGGUCCUUGGAUCAGCAGAAGGCACAUGAGGAUCACCCAUGUGGUAACGGACC [Mat - Exclusion 4 - Eli Mod - D36] (Eterna round: R97, puzzle: Brourd's mod of Exclusion 4)
- apparent KD of MS2 coat protein (input ligand: FMN 200 uM): 0.178 µM
- apparent KD of MS2 coat protein (input ligand: none): 0.357 µM

Sequence: GUCAUCAAACAUGGGUUAAACAUGAGGAUCACCCAUGUAUACAAGUUUUUUGCUCGUCUUAUAAUAAGUUUGAUGAC [Antenna 7 - Jieux - Sensor, turn-off variant 1] (Eterna round: R97, puzzle: Sensor, turn-off variant 1)
- apparent KD of MS2 coat protein (input ligand: FMN 200 uM): 0.0599 µM
- apparent KD of MS2 coat protein (input ligand: none): 0.0668 µM

Sequence: UUAAUUAGCAGGCAAGAUCAUUACAUGAGGAUCACCCAUGUCGAGGAUAUCAGCUCGAUUAGAGCUGAGAAGGCGACAGCCUGC [ExNG3/13-A1] (Eterna round: R96, puzzle: Exclusion NG 3)
- apparent KD of MS2 coat protein (input ligand: FMN 200 uM): 1.54 µM
- apparent KD of MS2 coat protein [4]: 0.443 µM
- apparent KD of MS2 coat protein (input ligand: none): 0.382 µM

Sequence: AAAACGGACCGAGGAUAUACAUGAUAUCUUUACGUAGAAGGCGGACCGGCGACUUGAGGAUCACCCAAGUGUCCUCUUUUGCGG [Mutated MS2 EX1.26] (Eterna round: R96, puzzle: Exclusion NG 1)
- apparent KD of MS2 coat protein (input ligand: FMN 200 uM): 0.183 µM
- apparent KD of MS2 coat protein [4]: 0.0511 µM
- apparent KD of MS2 coat protein (input ligand: none): 0.0467 µM

Sequence: GGUCGGCGAGGAUAUACAUGAGGAUCACCCAUGUGAUUUAGUGCACGCGUACGUGUACGUAGAAGGCGCUGACG [JL-ex3-3.27 salish99 mod] (puzzle: Exclusion 3)
- apparent KD of MS2 coat protein [1]: 0.127 µM
- apparent KD of MS2 coat protein [2]: 0.014 µM
- apparent KD of MS2 coat protein [3]: 0.0113 µM

Sequence: GCAUGGGCCGUCAGGAUAUAGGCGCCGUGAAGGUAUUAGAAGGGACAUGAGGAUCACCCAUGUAUGAGAAAAGA [Edtioresor] (puzzle: Brourd's mod of Exclusion 4)
- apparent KD of MS2 coat protein [2]: 0.0337 µM

Sequence: GGUAGUUCAGAUCCACAUGAGGAUCACCCAUGUUAAAGGAUCUAGGAUAUCGGGACAUCGAUGCCCGAGAAGGAGACUUUAGCG [Eternabot solution 39] (Eterna round: R96, puzzle: Exclusion NG 3)
- apparent KD of MS2 coat protein (input ligand: FMN 200 uM): 0.173 µM
- apparent KD of MS2 coat protein [4]: 0.1 µM
- apparent KD of MS2 coat protein (input ligand: none): 0.101 µM

Sequence: GUAUGUUCCUGAGGAUAUCGAGCCAUCGACCGCCGAGAAGGCAGAGACAUGAGGAUCACCCAUGUGAAGUAAUGGCGAUGAGAA [Eternabot solution 13] (Eterna round: R96, puzzle: Exclusion NG 1)
- apparent KD of MS2 coat protein (input ligand: FMN 200 uM): 0.0154 µM
- apparent KD of MS2 coat protein [4]: 0.0108 µM
- apparent KD of MS2 coat protein (input ligand: none): 0.017 µM

Sequence: AGCUGUGGCCGAGGAUAUCUAACAGUCCCAACCGAAAUAUAAUCGGACAUGAGGAUCACCCAUGUAGAGAAGGCGGUCUCAGCA [Eli eng2 - 072] (Eterna round: R96, puzzle: Exclusion NG 2)
- apparent KD of MS2 coat protein (input ligand: FMN 200 uM): 0.324 µM
- apparent KD of MS2 coat protein [4]: 0.157 µM
- apparent KD of MS2 coat protein (input ligand: none): 0.222 µM

Sequence: AGUACUAACACGAAAGUGUUAGUACAAUAAGCUUGUGAAACAUGAGGAUCACCCAUGUCCUCAUAAGCUCGUCUUAU [Mat - Sensor v2 -ver2- JL mod - D68] (Eterna round: R96, puzzle: Sensor v2, turn-off variant 2)
- apparent KD of MS2 coat protein (input ligand: FMN 200 uM): 0.0154 µM
- apparent KD of MS2 coat protein [4]: 0.468 µM
- apparent KD of MS2 coat protein (input ligand: none): 0.0176 µM

Sequence: UCUUAUUGCAAGGAUAUGCAAAUUAUUAUUAAUGCAGAAGGUGCUACAUGAGGAUCACCCAUGUUUCCGGGUUU [JR_E6_Sub042] (puzzle: Exclusion 6)
- apparent KD of MS2 coat protein [2]: 0.0433 µM

Sequence: ACAAAUCAUGUAGGAUAUGCGUGGCGAAGCUAUGCAGAAGGACAUGAGGAUCACCCAUGUGCUUCCGUCUGCGUACAGACGGUA [Mat - Exclusion NG 1 - Mod of JL - D16] (Eterna round: R96, puzzle: Exclusion NG 1)
- apparent KD of MS2 coat protein (input ligand: FMN 200 uM): 0.0753 µM
- apparent KD of MS2 coat protein [4]: 0.0646 µM
- apparent KD of MS2 coat protein (input ligand: none): 0.0915 µM

Sequence: UACUAUAAGGAGGAUAUCGUAUCGGAAACGAUACGAGAAGGCUUAACAUGAGGAUCACCCAUGUUCUUCAAUAU [Fiskers Ex 6 - 26] (puzzle: Exclusion 6)
- apparent KD of MS2 coat protein [1]: 0.016 µM
- apparent KD of MS2 coat protein [2]: 0.0162 µM
- apparent KD of MS2 coat protein [3]: 0.0146 µM

Sequence: GUAUCGUGAGGAUAUCAUGAUUGACUUUUGUUUUGUCAGCGUGAGAAGGCACAUGAGGAUCACCCAUGUGAUUA [Ex4 - 3 - 9] (puzzle: Exclusion 4)
- apparent KD of MS2 coat protein [2]: 0.0223 µM

Sequence: GUUGGUUGAGAGGAUAUUGUACGCGAUGAGUGUCGAGAAGGUUCAACAUGAGGAUCACCCAUGUGGCUGAGUAA [Eternabot (L1) Solution 40] (Eterna round: R97, puzzle: Exclusion 6)
- apparent KD of MS2 coat protein (input ligand: FMN 200 uM): 0.442 µM
- apparent KD of MS2 coat protein (input ligand: none): 0.0321 µM

Sequence: AAGAAACAUGAGGAUCACCCAUGUGAGGAUAUGUAAAAGAAAAUAAAAUAAAUAAGAAACAGAAGGCACAAAGG [Mat - Mod of Hog D19] (puzzle: Exclusion 1)
- apparent KD of MS2 coat protein [1]: 0.0532 µM
- apparent KD of MS2 coat protein [2]: 0.0392 µM
- apparent KD of MS2 coat protein [3]: 0.0448 µM

Sequence: UUUUGCUCAGGAUAUACAUGAGGAUCACCCAUGUAUAUUGAAGGUAAUACAUGGGAAUGUAGAAGGGAGCUCAU [Omei Ex3 Pseudoloop 21] (Eterna round: R97, puzzle: Exclusion 3)
- apparent KD of MS2 coat protein (input ligand: FMN 200 uM): 0.0479 µM
- apparent KD of MS2 coat protein (input ligand: none): 0.0704 µM

Sequence: GACCUAUAGGUAGGAUAUCAUUGCGAUUAGCUAUGAGAAGGACCACAUGAGGAUCACCCAUGUCCUCCAAUUAACCAUUUGGUC [Fiskers ExNg1 - 4] (Eterna round: R96, puzzle: Exclusion NG 1)
- apparent KD of MS2 coat protein (input ligand: FMN 200 uM): 0.239 µM
- apparent KD of MS2 coat protein [4]: 0.0696 µM
- apparent KD of MS2 coat protein (input ligand: none): 0.0867 µM

Sequence: AACUGAUCUUGAGGAUAUCAAACACAUGAGGAUCACCCAUGUCACGAGACGGUGCUUUCCAGGAGUGAGAAGGUAAGCAGCGAG [Eternabot solution 44] (Eterna round: R96, puzzle: Exclusion NG 2)
- apparent KD of MS2 coat protein (input ligand: FMN 200 uM): 0.031 µM
- apparent KD of MS2 coat protein [4]: 0.028 µM
- apparent KD of MS2 coat protein (input ligand: none): 0.0371 µM

Sequence: AAUUUUUAUGUAAGGAUAUGGGUUUGGAAACGGGCUUAGAAGGUACAUGAGGAUCACCCAUGUAUAAUGUGCGU [-19.9, -19.7 kcal, 30% A] (Eterna round: R97, puzzle: Brourd's mod of Exclusion 4)
- apparent KD of MS2 coat protein (input ligand: FMN 200 uM): 0.019 µM
- apparent KD of MS2 coat protein (input ligand: none): 0.0183 µM

Sequence: AAUAAAGUAGGAUAUACAUGAGGAUCACCCAUGUCCCACCCGUUACCUAUGACCAUAUGUAGAAGGACUAAUAA [Exy#3] (Eterna round: R97, puzzle: Exclusion 3)
- apparent KD of MS2 coat protein (input ligand: FMN 200 uM): 0.08 µM
- apparent KD of MS2 coat protein (input ligand: none): 0.0591 µM

Sequence: AAAGCGCGGUGAUAAUCUGUAACAUGAGGAUCACCCAUGUAGCAGGAUAUGGGCACAGUGGAAACUCAGAAGGGCUAUAAGCGC [Eternabot solution 21] (Eterna round: R96, puzzle: Exclusion NG 3)
- apparent KD of MS2 coat protein (input ligand: FMN 200 uM): 0.171 µM
- apparent KD of MS2 coat protein [4]: 0.369 µM
- apparent KD of MS2 coat protein (input ligand: none): 0.288 µM

Sequence: UUAUAGUUAGAGGAUAUAUUAAGGUAUGCUUUGAUAGAAGGCUAGACAUGAGGAUCACCCAUGUAUAUUGGGAU [JR_Ex6_Sub075] (Eterna round: R97, puzzle: Exclusion 6)
- apparent KD of MS2 coat protein (input ligand: FMN 200 uM): 0.425 µM
- apparent KD of MS2 coat protein (input ligand: none): 0.22 µM

Sequence: CUGAUGGACUAGGAUAUCCUCAUCGAUCAGGGAGGAGAAGGAGUCACAUGAGGAUCACCCAUGUGAUGGUAAAA [Atqubi] (puzzle: Exclusion 6)
- apparent KD of MS2 coat protein [1]: 0.0149 µM
- apparent KD of MS2 coat protein [2]: 0.0119 µM
- apparent KD of MS2 coat protein [3]: 0.0136 µM

Sequence: CAGUACUGAGGAUAUACAUGAGGAUCACCCAUGUAUCCUAGCUAGGAAACUAGCAAAUGUAGAAGGCAGUACUG [Ex3: 818] (Eterna round: R96, puzzle: Exclusion 3)
- apparent KD of MS2 coat protein (input ligand: FMN 200 uM): 0.747 µM
- apparent KD of MS2 coat protein [4]: 0.0538 µM
- apparent KD of MS2 coat protein (input ligand: none): 0.0612 µM

Sequence: CCAGAGAGCGAAGGAUAUUCUGUUCAAUGGGUCGACCUAGACAUGAGGAUCACCCAUGUCGCCCGGGAGAAGGUCGCAAGGAUC [Eternabot solution 18] (Eterna round: R96, puzzle: Exclusion NG 2)
- apparent KD of MS2 coat protein (input ligand: FMN 200 uM): 0.0187 µM
- apparent KD of MS2 coat protein [4]: 0.0133 µM
- apparent KD of MS2 coat protein (input ligand: none): 0.0184 µM

Sequence: UCAUACGAUGAGGAUAUCUCCGUUAAAGUAUGUAGAGAAGGCGUUACAUGAGGAUCACCCAUGUUUGUGGGCAG [Ex-6 Malc#9] (puzzle: Exclusion 6)
- apparent KD of MS2 coat protein [1]: 0.223 µM
- apparent KD of MS2 coat protein [2]: 0.217 µM
- apparent KD of MS2 coat protein [3]: 0.19 µM

Sequence: AGACAGUCAGGAUAUACAUGAGGAUCACCCAUGUUGAGAUGAGAAAGGGCAGGAAGAGGUAGAAGGGACAAGAG [JR_Exclu3_Sub036] (puzzle: Exclusion 3)
- apparent KD of MS2 coat protein [1]: 0.025 µM
- apparent KD of MS2 coat protein [2]: 0.0208 µM
- apparent KD of MS2 coat protein [3]: 0.0248 µM

Sequence: UUUUUAUUUGAAGGAUAUACUUAACAUGAGGAUCACCCAUGUGGUGUUGUGAGUGAGUGAGUUUAGUAGAAGGUCAAUUAUUUU [JMF's solution 18] (Eterna round: R96, puzzle: Exclusion NG 2)
- apparent KD of MS2 coat protein [4]: 0.359 µM

Sequence: UAUAUAUAGUAAGGAUAUGUAAAUAUUUUAUAAACAGAAGGUACUGACAUGAGGAUCACCCAUGUUUUAGUGUGGGCAUGUAGA [JMF's solution 28] (Eterna round: R96, puzzle: Exclusion NG 1)
- apparent KD of MS2 coat protein [4]: 0.0662 µM

Sequence: GACCCACAUGAGGAUCACCCAUGUGAGGAUAUCAUGCUUCGUAGUAAACUACGAAGUGUGAGAAGGCACAAUGG [Omei Ex1 C7] (Eterna round: R97, puzzle: Exclusion 1)
- apparent KD of MS2 coat protein (input ligand: FMN 200 uM): 0.134 µM
- apparent KD of MS2 coat protein (input ligand: none): 0.0374 µM
